Results from patent US20240343803A1 (SHANDONG SIMCERE BIOPHARMACEUTICAL, published 2024).
Values belong to the binder of their own block, whether it stands above or below them.

Tests used:
[1] = target: T1, cynomolgus monkey PVRIG (Novoprotein, Cat NO. C09B) (cynomolgus monkey, UniProt A0A2K5WVV8 41-171); assay: ELISA, coated cynomolgus monkey PVRIG
T1 construct: Bought reagent; also called cynomolgus monkey PVRIG protein
T1 sequence: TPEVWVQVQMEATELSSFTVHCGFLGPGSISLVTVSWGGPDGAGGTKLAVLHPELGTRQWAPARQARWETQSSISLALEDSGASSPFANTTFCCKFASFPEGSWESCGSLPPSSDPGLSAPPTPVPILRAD
Description: (§1) The ELISA plate was pre-coated with 100 μL/well of 0.5 μg/mL human PVRIG-his (AcroBiosystems, Cat NO. PVG-H52H4) or cynomolgus monkey PVRIG (Novoprotein, Cat NO. C09B). […] A HRP substrate, TMB (Thermo, Cat NO. 34029) was added into wells after washing the plate again for color development. After adding a termination solution to terminate the reaction, the absorbance value was read by a microplate reader (MD i3×). An antibody binding curve was drawn with concentration of antibodies as the abscissa and the corresponding OD value as the ordinate. The EC50 value was calculated by using a Four Parameter Logistic Fit (GraphPadPrism9). The smaller the EC50 value, the stronger the ability of the antibodies binds to human or cynomolgus monkey PVRIG. The positive control antibodies are COM701-hIgG1 (Patent No.:US20180244774A1), COM701-hIgG4 (patent No.: US20180244774A1) and SRF813-hIgG1 (Patent No.:US20200040081A1); and the negative control antibodies are anti-HA HcAb-hIgG1 (Chengdu NB Biolab, Cat NO. NBR022), anti-CD38 HcAb-hIgG1 (in-house) and anti-Fluorescein-hIgG1 (in house).

[2] = target: T2, human PVRIG on FlpinCHO-PVRIG cells (human, UniProt Q6DKI7 41-326); assay: FACS, FlpinCHO-PVRIG cells; AUC of MFI curve relative to COM701-hIgG1
T2 construct: whole, on cells
T2 sequence (looked up): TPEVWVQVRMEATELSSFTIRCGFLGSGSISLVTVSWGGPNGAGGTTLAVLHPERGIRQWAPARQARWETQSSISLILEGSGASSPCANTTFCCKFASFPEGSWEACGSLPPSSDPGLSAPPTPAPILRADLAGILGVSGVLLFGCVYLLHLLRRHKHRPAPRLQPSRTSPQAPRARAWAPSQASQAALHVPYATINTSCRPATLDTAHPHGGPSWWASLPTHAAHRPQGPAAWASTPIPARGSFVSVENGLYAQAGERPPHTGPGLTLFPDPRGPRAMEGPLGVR
Description: (§2) The Ham's F12 (Gibico, 21127-022) complete medium containing 10% FBS was then added to terminate the digestion and acquire cell suspension. After counting with a cell counter (Beckman Coulter, Vi-CELL), an appropriate amount of cell suspension was centrifuged at 350×g to remove the supernatant, washed twice with PBS, stained with Zombie violet (Biolegend, 423114) and incubated at room temperature for 20 minutes. After incubation, the cells were added with staining buffer (2% FBS+PBS) to stop staining, centrifuged at 350×g to remove the supernatant, washed twice and resuspended with staining buffer to a density of 2×10⁶ cells/mL. The cells were plated into a 96-well plate (50 μL of cell suspension per well) for further use. The antibodies were diluted from the highest concentration of 46 nM (two-fold concentration) with staining buffer by 3.3-fold serial dilution. The diluted antibodies were added to the well containing 50 μL of cell suspension. The plate was placed on a microplate shaker at 400 rpm for 1 minute to fully mix the antibodies and cells, and then incubated at 4° C. for 30 minutes. After the incubation, the cells were washed twice with staining buffer (200 μL per well) and centrifuged at 350×g for 5 minutes to discard the supernatant. The PE goat anti-human IgG Fc antibody (ebioscience, 12-4998-82) was diluted 250 times with staining buffer, added into the washed wells (100 μL per well), mixed well, and stained at 4° C. for 30 minutes. After staining, the cells were washed twice with staining buffer, finally resuspended with 200 μL staining buffer and analyzed by flow cytometry (BD, Canto II). The stronger the signal, the stronger the ability of the antibodies binds to PVRIG. An antibody binding curve was drawn with concentration of antibodies as the abscissa and the corresponding Mean Fluorescence Intensity (MFI) as the ordinate. The AUC value of the curve was calculated by using a Four Parameter Logistic Fit (GraphPadPrism9). The stronger the AUC value, the stronger the ability of the antibodies binds to FlpinCHO-PVRIG and FlpinCHO-cyno PVRIG. […] The binding activity of the antibodies was normalized to the positive control COM701-hIgG1 and SRF813-hIgG1.

[3] = target: T3, cynomolgus monkey PVRIG on FlpinCHO-cyno PVRIG cells (cynomolgus monkey, UniProt A0A2K5WVV8 41-322); assay: FACS, FlpinCHO-cyno PVRIG cells; AUC of MFI curve relative to COM701-hIgG1
T3 construct: whole, on cells
T3 sequence: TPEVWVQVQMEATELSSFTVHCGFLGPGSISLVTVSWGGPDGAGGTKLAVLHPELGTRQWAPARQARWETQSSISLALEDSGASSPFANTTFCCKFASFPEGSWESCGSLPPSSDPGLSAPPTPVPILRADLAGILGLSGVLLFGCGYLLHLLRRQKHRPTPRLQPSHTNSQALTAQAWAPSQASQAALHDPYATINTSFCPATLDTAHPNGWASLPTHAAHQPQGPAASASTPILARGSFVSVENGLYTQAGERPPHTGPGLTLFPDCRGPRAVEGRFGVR
Description: as §2

[4] = target: T3, cynomolgus monkey PVRIG on …; assay: FACS, FlpinCHO-cyno PVRIG cells; AUC of MFI curve relative to SRF813-hIgG1
Description: as §2

[5] = target: T2, human PVRIG on FlpinCHO-PVRIG cells; assay: FACS, FlpinCHO-PVRIG cells; AUC of MFI curve relative to SRF813-hIgG1
Description: as §2

[6] = target: T4, human PVRIG-his (AcroBiosystems, Cat NO. PVG-H52H4) (human, UniProt Q6DKI7 41-171, limits assumed); assay: ELISA, coated human PVRIG-his
T4 construct: Bought reagent; also called human PVRIG protein
T4 sequence (looked up): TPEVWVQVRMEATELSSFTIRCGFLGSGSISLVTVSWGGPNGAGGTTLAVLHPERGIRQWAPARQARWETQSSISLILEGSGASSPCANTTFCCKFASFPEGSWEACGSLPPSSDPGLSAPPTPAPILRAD
Description: as §1

B2: PVRIG-A60 (Fc fusion)
chain: QVQLVESGGGLVQSGGSLRLSCAASGRTRSMYVMGWFRQAPGKEREFVGRIKWSGDTTYTSYADFVKGRFTLYGNQARNTVYLQMNSLKPEDAAVYYCNLRRLDGVNYWGKGTLVTVSS
notes: Alpaca VHH joined to human IgG1 Fc (VHH-hinge-CH2-CH3); not shown: human IgG1 hinge-CH2-CH3
EC50 [1]: 0.0343 nM | % AUC to COM701-hIgG1 [2]: 63.3% | % AUC to COM701-hIgG1 [3]: 63.4% | % AUC to SRF813-hIgG1 [4]: 82.9% | % AUC to SRF813-hIgG1 [5]: 68.6% | EC50 [6]: 0.0557 nM

B4: PVRIG-A35 (Fc fusion)
chain: EVQVVESGGGLVQSGGSLRLSCAASGRTRSMYVMGWFRQAPGKEREFVGRIKWSGDTTYTSYADFVKGRFTLYGNQARNTVYLQMNSLKPEDTAVYYCNGRSRFNVINAWGTGTLVTVAS
notes: as for B2
EC50 [1]: 0.0288 nM | % AUC to COM701-hIgG1 [2]: 122% | % AUC to COM701-hIgG1 [3]: 19.3% | % AUC to SRF813-hIgG1 [4]: 25.3% | % AUC to SRF813-hIgG1 [5]: 134% | EC50 [6]: 0.0543 nM

B6: PVRIG-A104 (Fc fusion)
chain: EVQVVESGGGLVQAGGSLRLSCAASGRTRSMYVMGWFRQAPGKEREFVGRIKWSGDTTYTSYADFVKGRFTLYGNQARNTVYLQMNSLKPEDTAVYYCYRRSWTNTKLYWGKGIQVTVSS
notes: as for B2
EC50 [1]: 0.0353 nM | % AUC to COM701-hIgG1 [2]: 18.1% | % AUC to COM701-hIgG1 [3]: 18.4% | % AUC to SRF813-hIgG1 [4]: 23.9% | % AUC to SRF813-hIgG1 [5]: 23.9% | EC50 [6]: 0.0659 nM

Continued, values first:

EC50 [1]: 0.0534 nM | % AUC to COM701-hIgG1 [2]: 89.5% | % AUC to COM701-hIgG1 [3]: 59.3% | % AUC to SRF813-hIgG1 [4]: 69.7% | % AUC to SRF813-hIgG1 [5]: 115% | EC50 [6]: 0.196 nM
B1: PVRIG-A50 (Fc fusion)
chain: EVQLVESGGGLVQPGGSLRLSCAASGFTFSYYDMSWVRQAPGKGLEWVSTINSNGGRTSYVDSVKGRFTISRDNTKNTLYLQMNSLKPEDTAVYYCVEGDPHNFGLENLSLRDFGSWGQGTQVTVSS
notes: as for B2

EC50 [1]: 0.0288 nM | % AUC to COM701-hIgG1 [2]: 50.6% | % AUC to COM701-hIgG1 [3]: 47.6% | % AUC to SRF813-hIgG1 [4]: 62.4% | % AUC to SRF813-hIgG1 [5]: 54.5% | EC50 [6]: 0.0621 nM
B3: PVRIG-A75 (Fc fusion)
chain: QLQLVESGGGLVQSGGSLRLSCAASGRTRSMYVMGWFRQAPGKEREFVGRIKWSGDTTYTSYADFVKGRFTLYGNQARNTVYLQMNSLKPEDTAVYSCAASKFPVSGVPEHYDYWGQGTQVTVSS
notes: as for B2

EC50 [1]: 0.036 nM | % AUC to COM701-hIgG1 [2]: 165% | % AUC to COM701-hIgG1 [3]: 19.6% | % AUC to SRF813-hIgG1 [4]: 25.7% | % AUC to SRF813-hIgG1 [5]: 181% | EC50 [6]: 0.0537 nM
B5: PVRIG-A43 (Fc fusion)
chain: QVQLVESGGGLVQSGGSLRLSCAASGRTRSMYVMGWFRQAPGKEREFVGRIKWSGDTTYTSYADFVKGRFTLYGNQARNTVYLQMNSLKVEDTAVYYCAGRVVPLPSRQRDRYDYWGQGTQVTVSS
notes: as for B2
